This assay concerns the target SARS-CoV-1 spike protein (FL-GCN4-Avi-His, biotinylated) (SARS-CoV-1 (SARS-CoV), strain , UniProt P59594, stabilised, biotin on the Avi tag). The experiment in a line: BLI. A general note: Biolayer interferometry detects binding as a change in optical thickness at a sensor tip.

B1: CV27 IgG (antibody, V domains shown)
VH: QVQLVESGGGVVQPGRSLRLSCAASGFTFSSYAMHWVRQAPGKGLEWVALISYDGSNKYYADSVKGRFTISRDNSKNTLYLQMNSLRAEDTAVYYCARSFGGSYYYGMDVWGQGTTVTVSS
VL: QSALTQPASVSGSPGQSITISCTGTSSDVGGYNYVSWYQQHPGKAPKLMIYDVSNRPSGVSNRFSGSKSGNTASLTISGLQAEDEADYYCSSYTSSSTPYVFGTGTKVTVL
On to B1, for which the binding result is listed as “binds”.
